T1: GST–FLC, full length (Arabidopsis thaliana, UniProt Q9S7Q7 1-196)
T1 construct: Flowering locus C (FLC), Arabidopsis, full-length GST–FLC bait; The construct section describes only GST–FLC-Myc (pGEX4T-1)
T1 sequence (looked up): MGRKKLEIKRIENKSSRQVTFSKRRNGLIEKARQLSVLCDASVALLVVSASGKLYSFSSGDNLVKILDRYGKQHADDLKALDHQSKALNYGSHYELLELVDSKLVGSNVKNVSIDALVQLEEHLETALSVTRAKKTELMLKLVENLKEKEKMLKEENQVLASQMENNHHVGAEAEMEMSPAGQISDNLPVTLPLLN

B1: His6-FLC (flowering locus C, full length) (natural protein, Arabidopsis thaliana, UniProt Q9S7Q7 1-196, looked up)
chain: MGRKKLEIKRIENKSSRQVTFSKRRNGLIEKARQLSVLCDASVALLVVSASGKLYSFSSGDNLVKILDRYGKQHADDLKALDHQSKALNYGSHYELLELVDSKLVGSNVKNVSIDALVQLEEHLETALSVTRAKKTELMLKLVENLKEKEKMLKEENQVLASQMENNHHVGAEAEMEMSPAGQISDNLPVTLPLLN
notes: Flowering locus C (FLC), MADS-box transcription factor, Arabidopsis; full-length cDNA in pET28a; The printed name puts His6 before FLC; also called Arabidopsis FLC; source: E. coli BL21/DE3 (pLysS), purified (Ni2+-NTA resin)

Tests used:
GST–FLC, full length = target: T1, GST–FLC, full length; test: pull-down; 2 μg GST–FLC bait and 2 μg His6-FLC or His6-mFLC prey in 1 ml binding buffer (50 mM TRIS-HCl pH 7.5, 100 mM NaCl, 1% Triton X-100, 0.2% glycerol, 0.5 mM β-mercaptoethanol); 25 °C 2 h; glutathione resin; anti-His blot; conditions: both partners purified
[1] = target: B1; test: pull-down; 2 μg GST–AtSIZ1 (full length or deletion mutant) or GST bait and 2 μg His6-FLC prey in 1 ml 50 mM TRIS-HCl pH 7.5, 100 mM NaCl, 1% Triton X-100, 0.2% glycerol, 0.5 mM β-mercaptoethanol; 25 °C 2 h; glutathione resin; anti-His blot; conditions: both partners purified

binding result (GST–FLC, full length)	binding result [1]	Binder
binds		B1
binds		His6-mFLC (FLC K154R) (natural protein, Arabidopsis thaliana, UniProt Q9S7Q7 1-196, looked up, Flowering locus C (FLC), Arabidopsis, full length with the sumoylation site mutation K154R; The construct section describes His6-FLC(K154R)-Myc only; also called mutant FLC; source: E. coli BL21, purified (Ni2+-NTA resin)) MGRKKLEIKRIENKSSRQVTFSKRRNGLIEKARQLSVLCDASVALLVVSASGKLYSFSSGDNLVKILDRYGKQHADDLKALDHQSKALNYGSHYELLELVDSKLVGSNVKNVSIDALVQLEEHLETALSVTRAKKTELMLKLVENLKEKEKMLREENQVLASQMENNHHVGAEAEMEMSPAGQISDNLPVTLPLLN
	binds	GST–AtSIZ1 (D3), amino acids 1–100 (domain or fragment, Arabidopsis thaliana, UniProt Q680Q4 1-100, looked up, AtSIZ1, Arabidopsis, amino acids 1-100 (N-terminal region containing the SAP domain), in pGEX4T-1; also called N-terminal region containing the SAP domain of AtSIZ1; source: E. coli BL21/DE3 (pLysS), purified (glutathione resin)) MDLEANCKEKLSYFRIKELKDVLTQLGLSKQGKKQELVDRILTLLSDEQAARLLSKKNTVAKEAVAKLVDDTYRKMQVSGASDLASKGQVSSDTSNLKVK

Reference: article PMC3883301, “FLC-mediated flowering repression is positively regulated by sumoylation” (Journal of Experimental Botany, 2013)
